This test has as its target Bcl-xL, Q07817. As to the kind of experiment: peptide SPOT array, c-Myc-tagged receptor at 1 uM or 100 nM, anti-c-Myc-Cy3.

Sequence of Bcl-xL, Q07817 (Q07817 1-209): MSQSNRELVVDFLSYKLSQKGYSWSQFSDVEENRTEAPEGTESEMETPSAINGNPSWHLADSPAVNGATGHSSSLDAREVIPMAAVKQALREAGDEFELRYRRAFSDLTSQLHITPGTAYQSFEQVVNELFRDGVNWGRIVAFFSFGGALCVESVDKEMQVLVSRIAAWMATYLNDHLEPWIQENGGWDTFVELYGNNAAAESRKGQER

B1: MYPN (peptide)
chain: KVFLNKAADFIEELSSLFKSHSSKRI
Molecule B1 had an SPOT signal as a fraction of Bim BH3's signal on the same receptor and array of 0.13.

B2: FAHD1 (peptide)
chain: MDYVGGYALCLDMTARDVQDECKKKG
The molecule B2 gave an SPOT signal as a fraction of Bim BH3's signal on the same receptor and array of 0.03.

B3: NLRP1 (peptide)
chain: LKELDLSGNSDSHSAVKSLCKTLRRP
Regarding B3, the SPOT signal as a fraction of Bim BH3's signal on the same receptor and array amounted to 0.22.

B4: BRPF3 (peptide)
chain: DTIFHRAAVRLRDLLGAILRHARRQA
The molecule B4 had an SPOT signal as a fraction of Bim BH3's signal on the same receptor and array of 0.55.

B5: CHMP1A (peptide)
chain: LFQLKFTAKQLEKLAKKAEKDSKAEQ
The molecule B5 gave an SPOT signal as a fraction of Bim BH3's signal on the same receptor and array of 0.18.

B6: RNF123 (peptide)
chain: FSEFIGMIQEIQQAAERLERNFVDSR
B6 displayed an SPOT signal as a fraction of Bim BH3's signal on the same receptor and array of 0.03.

B7: TTC31 (peptide)
chain: DLSSTFVSLADRKVGDWPLSARREKG
Consider B7, for which the SPOT signal as a fraction of Bim BH3's signal on the same receptor and array is 0.21.

B8: TTN (peptide)
chain: VENTTDLASILIKDADRLNSGCYELK
B8 displayed an SPOT signal as a fraction of Bim BH3's signal on the same receptor and array of 0.02.

B9: EVI5 (peptide)
chain: PHQFDGVPDKLIQALYQVKYNSKKMK
Regarding B9, the SPOT signal as a fraction of Bim BH3's signal on the same receptor and array was 0.48.

B10: FHOD3 (peptide)
chain: LSSISELSARLHLWAFKMDYETTEKE
B10: the SPOT signal as a fraction of Bim BH3's signal on the same receptor and array was 0.03.

B11: FOLH1 (peptide)
chain: PFDCRDYAVVLRKYLDKIYSISMKHP
The molecule B11 came in with an SPOT signal as a fraction of Bim BH3's signal on the same receptor and array of 0.44.

B12: METAP2 (peptide)
chain: GMTMIEICEKLEDCSRKLIKENGLNA
On to B12, for which the SPOT signal as a fraction of Bim BH3's signal on the same receptor and array was determined as 0.03.

B13: PLXNA4 (peptide)
chain: GHIYLGAVNRIYKLSSDLKVLVTHET
Take B13: the SPOT signal as a fraction of Bim BH3's signal on the same receptor and array stood at 0.08.

B14: RP1L1 (peptide)
chain: HRNTRNLAAFDGKASDLLRFPVKQLY
For the molecule B14, the SPOT signal as a fraction of Bim BH3's signal on the same receptor and array was found to be 1.4.

B15: PPL (peptide)
chain: NKELSELIEQLQKNADQVEKNIVDTE
For the molecule B15, the SPOT signal as a fraction of Bim BH3's signal on the same receptor and array was determined as 0.03.

B16: MAST1 (peptide)
chain: DGVLSFIHHQIIELARDCLTKSRDGL
Turning to B16, the SPOT signal as a fraction of Bim BH3's signal on the same receptor and array stood at 0.03.

B17: CACNA1G (peptide)
chain: VYILRKAARRLAQVLRAAGVRVGLLS
For the molecule B17, the SPOT signal as a fraction of Bim BH3's signal on the same receptor and array is 0.67.

B18: NBEAL2 (peptide)
chain: EVRSSQFARKLWRSLRRISQVSSGET
Consider B18, for which the SPOT signal as a fraction of Bim BH3's signal on the same receptor and array worked out at 0.62.

B19: ASB10 (peptide)
chain: GPGTLECAELLLRFGARVDGRSEEEE
Regarding B19, the SPOT signal as a fraction of Bim BH3's signal on the same receptor and array was determined as 0.03.

B20: RP1L1 (peptide)
chain: HRNTRNLAAFLGKASDLLRFPVKQLY
B20 gave an SPOT signal as a fraction of Bim BH3's signal on the same receptor and array of 0.91.

B21: RIMBP3 (peptide)
chain: RAELTGLARRDADRARKLQETNLRAV
Regarding B21, the SPOT signal as a fraction of Bim BH3's signal on the same receptor and array is 0.51.

B22: C3orf15 (peptide)
chain: RAEIEKMAEKINDIAYEMESRRTYLQ
Molecule B22 came in with an SPOT signal as a fraction of Bim BH3's signal on the same receptor and array of 0.03.

B23: IQGAP3 (peptide)
chain: YGKVKFTAEELSNMASELAKYGLQLP
B23: the SPOT signal as a fraction of Bim BH3's signal on the same receptor and array came out at 0.05.

B24: DNAH1 (peptide)
chain: EMNLQDHIESISKVAEVAGKEYAIEQ
On to B24, for which the SPOT signal as a fraction of Bim BH3's signal on the same receptor and array is 0.02.

B25: TUBB4Q (peptide)
chain: FTGNNTAVQEDKRVSEQFTATFRRKA
In the case of B25, the SPOT signal as a fraction of Bim BH3's signal on the same receptor and array is 0.41.

B26: PANK2 (peptide)
chain: FLRINTIAMRLLAYALDYWSKGQLKA
B26 gave an SPOT signal as a fraction of Bim BH3's signal on the same receptor and array of 0.19.

B27: BLOC1S2 (peptide)
chain: VAALEQAAYKLDAYSKKLEAKYKKLE
Molecule B27 had an SPOT signal as a fraction of Bim BH3's signal on the same receptor and array of 0.25.

B28: RIMBP3 (peptide)
chain: RAELTGLARRLADRARKLQETNLRAV
For the molecule B28, the SPOT signal as a fraction of Bim BH3's signal on the same receptor and array was determined as 0.58.

B29: MURC (peptide)
chain: GERLRQSGERLRQSGERFKKSISNAA
As for B29, the SPOT signal as a fraction of Bim BH3's signal on the same receptor and array came to 0.44.

B30: TTC23 (peptide)
chain: LTKAERLSKELLQCGRIIKEEWIEIE
B30 displayed an SPOT signal as a fraction of Bim BH3's signal on the same receptor and array of 0.03.

B31: PION (peptide)
chain: DISLSNSGFKLVNFLCDYHQYRDKFS
B31 registered an SPOT signal as a fraction of Bim BH3's signal on the same receptor and array of 0.17.

B32: IFFO2 (peptide)
chain: RMNLQTMVDTLQEAAQEADAIQEEMN
In the case of B32, the SPOT signal as a fraction of Bim BH3's signal on the same receptor and array turned out to be 0.02.

B33: AZIN1 (peptide)
chain: FGTTLKNCRHLLECAKELDVQIIGVK
Take B33: the SPOT signal as a fraction of Bim BH3's signal on the same receptor and array came out at 0.03.

B34: SCARB2 (peptide)
chain: FVDINPLTGIILKAAKRFQINIYVKK
In turn, B34 registered an SPOT signal as a fraction of Bim BH3's signal on the same receptor and array of 0.16.

B35: INADL (peptide)
chain: GFANHDVVEVDRNAGQVVHLTLVRRK
Molecule B35 yielded an SPOT signal as a fraction of Bim BH3's signal on the same receptor and array of 0.08.

B36: APOA4 (peptide)
chain: VPFATELHERLAKDSEKLKEEIGKEL
For the molecule B36, the SPOT signal as a fraction of Bim BH3's signal on the same receptor and array amounted to 0.02.

B37: RANBP10 (peptide)
chain: TERIILFGRELQALSEQLGREYGKNL
In turn, B37 returned an SPOT signal as a fraction of Bim BH3's signal on the same receptor and array of 0.03.

B38: FIGN (peptide)
chain: DISALTASNLDKKYAEKYSGILEGPV
Turning to B38, the SPOT signal as a fraction of Bim BH3's signal on the same receptor and array amounted to 0.02.

B39: FOLH1B (peptide)
chain: PFDCRDYAVVDRKYADKIYNISMKHP
As to B39, the SPOT signal as a fraction of Bim BH3's signal on the same receptor and array came out at 0.36.

B40: SH3GL1 (peptide)
chain: LDYHRQAVQILDELAEKLKRRMREAS
The molecule B40 displayed an SPOT signal as a fraction of Bim BH3's signal on the same receptor and array of 0.05.

B41: GRIPAP1 (peptide)
chain: RTNNYQLSDEDRKNGVELTSLRQKVA
In the case of B41, the SPOT signal as a fraction of Bim BH3's signal on the same receptor and array was 0.05.

B42: TRPM7 (peptide)
chain: FERVEQMCIQDKEVGDRVNYIKRSLQ
Molecule B42 had an SPOT signal as a fraction of Bim BH3's signal on the same receptor and array of 0.03.

B43: XXXX (peptide)
chain: VGNVDECGKKLVEVARRCRDEAIAAC
With B43, the SPOT signal as a fraction of Bim BH3's signal on the same receptor and array was 0.02.

B44: NPLOC4 (peptide)
chain: ATKRETAATFLKKVLKEFGFQNNGFS
Consider B44, for which the SPOT signal as a fraction of Bim BH3's signal on the same receptor and array came out at 0.48.

B45: EVI5 (peptide)
chain: PHQFDGVPDKLIQAAYQVKYNSKKMK
B45 showed an SPOT signal as a fraction of Bim BH3's signal on the same receptor and array of 0.69.

B46: ACAP3 (peptide)
chain: LGRTGQVCLFLKRGLDQHALDQEQRD
B46 yielded an SPOT signal as a fraction of Bim BH3's signal on the same receptor and array of 0.29.

B47: PAXIP1 (peptide)
chain: PVQVQQYIKKLYILGGEVAESAQKCT
The molecule B47 came in with an SPOT signal as a fraction of Bim BH3's signal on the same receptor and array of 0.05.

B48: C4orf22 (peptide)
chain: DFEARKAAIEIARLAERAQQKTLTSA
B48 came in with an SPOT signal as a fraction of Bim BH3's signal on the same receptor and array of 0.04.

B49: ANGPTL4 (peptide)
chain: WDEMNVLAHGLLQLGQGLREHAERTR
As to B49, the SPOT signal as a fraction of Bim BH3's signal on the same receptor and array came out at 0.04.

B50: APOL6 (peptide)
chain: KEDLKGNIDKLRALADDIDKTHKKFT
In turn, B50 showed an SPOT signal as a fraction of Bim BH3's signal on the same receptor and array of 0.17.

B51: TRIM40 (peptide)
chain: VTQLRSLVIDLERTAKELDTNTLKNA
For B51, the SPOT signal as a fraction of Bim BH3's signal on the same receptor and array is 0.03.

B52: ANKRD11 (peptide)
chain: NRGYYDVAKQLLAAGAEVNTKGLDDD
B52 returned an SPOT signal as a fraction of Bim BH3's signal on the same receptor and array of 0.03.

Values taken from publication PMC4072508, “Genome-Wide Prediction and Validation of Peptides That Bind Human Prosurvival Bcl-2 Proteins” (PLoS Computational Biology, 2014).
